Source: patent CN108948194A

T1: 食蟹猴CTLA-4.ECD-6xHis (cynomolgus monkey) (UniProt G7PL88)
T1 sequence: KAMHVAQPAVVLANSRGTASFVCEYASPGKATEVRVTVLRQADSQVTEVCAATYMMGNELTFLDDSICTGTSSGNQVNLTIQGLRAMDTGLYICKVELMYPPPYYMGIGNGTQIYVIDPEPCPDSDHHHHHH


Legend:
[1] = target: 全长人CTLA-4 on cells (293F stable line) (human) (UniProt P16410); assay: FACS on 293F cells expressing human CTLA-4
[2] = target: 人CTLA-4.ECD-6xHis (human) (UniProt P16410); assay: ELISA; human CTLA-4.ECD-6xHis coated at 1.0 μg/mL
[3] = target: T1, 食蟹猴CTLA-4.ECD-6xHis (cynomolgus monkey); assay: ELISA; cynomolgus CTLA-4.ECD-6xHis coated at 0.5 μg/mL
[4] = target: T1, 食蟹猴CTLA-4.ECD-6xHis (cynomolgus monkey); assay: SPR; antibody captured, cynomolgus CTLA-4.ECD-6xHis as analyte, 1:1 fit
[5] = target: 全长人CTLA-4 on cells (293F stable line) (human) (UniProt P16410); assay: FACS affinity (modified Benedict method) on cells expressing human CTLA-4
人CTLA-4.ECD.hFc (human) [6] = target: 人CTLA-4.ECD.hFc (human) (UniProt P16410); assay: competition ELISA; CTLA-4.ECD.hFc coated, competitor CD80-6xHis at 0.25 μg/mL
人CTLA-4.ECD.hFc (human) [7] = target: 人CTLA-4.ECD.hFc (human) (UniProt P16410); assay: competition ELISA; CTLA-4.ECD.hFc coated, competitor CD86-6xHis at 0.25 μg/mL
[8] = target: 人CTLA-4.ECD-6xHis (human) (UniProt P16410); assay: SPR (Biacore T200); antibody captured on anti-human Fc, hCTLA-4.ECD-6xHis as analyte, 1:1 fit
人CTLA-4.ECD.hFc (human) [9] = target: 人CTLA-4.ECD.hFc (human) (UniProt P16410); assay: FACS competition; biotinylated hCTLA-4.ECD.hFc on CD80-expressing CHO cells (competitor CD80)
人CTLA-4.ECD.hFc (human) [10] = target: 人CTLA-4.ECD.hFc (human) (UniProt P16410); assay: FACS competition; biotinylated hCTLA-4.ECD.hFc on CD86-expressing CHO cells (competitor CD86)
[11] = target: 小鼠CTLA-4.ECD-6xHis (mouse) (UniProt P09793); assay: ELISA; mouse CTLA-4.ECD-6xHis coated at 0.5 μg/mL
[12] = target: 小鼠CTLA-4.ECD-6xHis (mouse) (UniProt P09793); assay: SPR; antibody captured, mouse CTLA-4.ECD-6xHis as analyte, 1:1 fit

| EC50 [1] [nM] | EC50 [2] [nM] | EC50 [3] [nM] | Kd [4] [nM] | Kd [5] [nM] | IC50 (人CTLA-4.ECD.hFc (human) [6]) [nM] | IC50 (人CTLA-4.ECD.hFc (human) [7]) [nM] | Kd [8] [nM] | IC50 (人CTLA-4.ECD.hFc (human) [9]) [nM] | percent of CTLA-4 binding blocked at the highest concentration (人CTLA-4.ECD.hFc (human) [9]) [%] | IC50 (人CTLA-4.ECD.hFc (human) [10]) [nM] | percent of CTLA-4 binding blocked at the highest concentration (人CTLA-4.ECD.hFc (human) [10]) [%] | EC50 [11] [nM] | Kd [12] [nM] | Binder |
| --- | --- | --- | --- | --- | --- | --- | --- | --- | --- | --- | --- | --- | --- | --- |
| 0.66 | 0.04 | 0.05 | 0.131 | 0.35 | 0.63 | 0.5 | 0.0968 | 0.07 | 89 | 0.28 | 98 |  |  | W3162-1.154.8-z35-IgGk (antibody, from another filing, V domains shown) VH: QVQLVQSGAEVKKPGSSVKVSCKASGYTFTNYFMNWVRQAPGQGLEWMGRVDPEQGRADYAEKFKKRVTITADKSTSTAYMELSSLRSEDTAVYYCARRAMDNYGFAYWGQGTLVTVSS VL: EIVLTQSPDFQSVTPKEKVTITCSANSALSYMYWYQQKPDQSPKLWVHGTSNLASGVPSRFSGSGSGTDFTLTINSLEAEDAATYYCHHWSNTQWTFGGGTKVEIK |
| 1.58 | 0.03 | 0.05 | 1.92 | 5.05 | 0.87 | 0.71 | 0.477 | 6.6 | 71 | 5.15 | 73 | 0.19 | 1.39 | W3162-1.146.19-z12-IgGk (antibody, from another filing, V domains shown) VH: QVQLQESGPGLVKPSETLSLTCSVTYHTITSGYDWTWIRKPPGKGMEWIGYISYSGNTNYNPSLKSRVTISRDTSKNQFFLKLSSVTAADTAVYYCASMMVPHYYVMDAWGQGTLVTVSS VL: DIVMTQTPLSLSVTPGQPASISCRSSQSLLNSDGNTYLYWYLQKPGQSPQLLIYLVSKLGSGVPNRFSGSGSGTDFTLKISRVEAEDVGVYYCVQGTHDPWTFGGGTKVEIK |
